Here are results for two substances from patent US20250066831.

For series [1], the system named is V40 elastin-like polypeptide fused to CVLL.
In series [2] the test system is ELP-CVLS (protein substrate of the in vitro farnesylation reaction).

Sequence of V40 elastin-like polypeptide fused to CVLL (chain, as listed by the source): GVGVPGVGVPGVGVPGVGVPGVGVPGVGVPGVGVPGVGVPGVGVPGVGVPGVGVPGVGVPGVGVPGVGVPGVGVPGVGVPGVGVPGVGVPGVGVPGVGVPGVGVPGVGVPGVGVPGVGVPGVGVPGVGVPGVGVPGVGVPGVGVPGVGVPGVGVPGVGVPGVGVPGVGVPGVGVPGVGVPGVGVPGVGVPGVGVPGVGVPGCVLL

For the substance “geranylgeranyl transferase type I (GGTase-I) from Rattus norvegicus, heterodimer of alpha and beta subunits”, the “farnesylation on co-expression in E. coli (HPLC, MALDI-TOF MS, NMR of purified V40-Fr)” value in series [1] was “only one farnesyl group is added to the protein at the cysteine residue located in the C-terminal CaaX motif”. As to “farnesyltransferase (FTase) from Rattus norvegicus, heterodimer of alpha and beta subunits”, in series [2], the “in vitro farnesylation (3 µM ELP-CVLS, 0.2 µM FTase, 10 µM FPP, RP-HPLC)” value was “In vitro farnesylation of ELPs with the soluble transferase (produced as a translationally coupled heterodimer) indicates that the recombinantly expressed enzyme is active”.
